The results in this text go back to the Human Domainome abundance scans (Beltran et al. 2025).

± gives the uncertainty stated by the source.

B1: Homeobox protein cut-like 1, residues 941 to 1008; numbered along this chain, P39880 (parent)
chain: QEVDTIELTRQVKEKLAKNGICQRIFGEKVLGLSQGSVSDMLSRPKPWSKLTQKGREPFIRMQLWLNG

In the series the parent is B1. As to the kind of experiment: abundance fitness (aPCA) (normalised: wild type 0, dead -1); higher = more abundant; growth selection in yeast, the domain comes from the species named. The following applies: Homo sapiens.
Consider QEVDTIELTRQVKEKLAKNGICQRIFGEKVLGLSQGSVSDMLSDPKPWSKLTQKGREPFIRMQLWLNG, for which the abundance fitness came to 0.12 ± 0.12.

Consider QEVDTIELTRQVKEKLAKNGICQRIFGEKVLGLSQGSVSDMLSCPKPWSKLTQKGREPFIRMQLWLNG, for which the abundance fitness is -0.007 ± 0.078.

Regarding QEVDTIELTRQVKEKLAKNGICQRIFGEKVLGLSQGSVSDMLSHPKPWSKLTQKGREPFIRMQLWLNG, the abundance fitness is -0.125 ± 0.1.

For the variant QEVDTIELTRQVKEKLAKNGICQRIFGEKVLGLSQGSVSDLLSRPKPWSKLTQKGREPFIRMQLWLNG, the abundance fitness turned out to be 0.027 ± 0.048.

As for QEVDTIELTRQVKEKLAKNGICQRIFGEKVLGLSQGSVSDDLSRPKPWSKLTQKGREPFIRMQLWLNG, the abundance fitness was -0.194 ± 0.1.

In the case of QEVDTIELTRQVKEKLAKNGICQRIFGEKVLGLSQGSVSDTLSRPKPWSKLTQKGREPFIRMQLWLNG, the abundance fitness was -0.107 ± 0.066.

Regarding QEVDTIELTRQVKEKLAKNGICQRIFGEKVLGLSQGSVSDELSRPKPWSKLTQKGREPFIRMQLWLNG, the abundance fitness is -0.335 ± 0.07.

For QEVDTIELTRQVKEKLAKNGICQRIFGEKVLGLSQGSVSDNLSRPKPWSKLTQKGREPFIRMQLWLNG, the abundance fitness is -0.275 ± 0.097.

For the variant QEVDTIELTRQVKEKLAKNGICQRIFGEKVLGLSQGSVSDPLSRPKPWSKLTQKGREPFIRMQLWLNG, the abundance fitness was -0.289 ± 0.071.

With QEVDTIELTRQVKEKLAKNGICQRIFGEKVLGLSQGSVSDKLSRPKPWSKLTQKGREPFIRMQLWLNG, the abundance fitness was -0.089 ± 0.072.

Take QEVDTIELTRQVKEKLAKNGICQRIFGEKVLGLSQGSVSDWLSRPKPWSKLTQKGREPFIRMQLWLNG: the abundance fitness was 0.022 ± 0.064.

With QEVDTIELTRQVKEKLAKNGICQRIFGEKVLGLSQGSVSDHLSRPKPWSKLTQKGREPFIRMQLWLNG, the abundance fitness was -0.291 ± 0.14.

On to QEVDTIELTRQVKEKLAKNGICQRIFGEKVLGLSQGSVSDFLSRPKPWSKLTQKGREPFIRMQLWLNG, for which the abundance fitness stood at 0.003 ± 0.12.

For QEVDTIELTRQVKEKLAKNGICQRIFGEKVLGLSQGSVSDQLSRPKPWSKLTQKGREPFIRMQLWLNG, the abundance fitness is -0.171 ± 0.067.

For QEVDTIELTRQVKEKLAKNGICQRIFGEKVLGLSQGSVSDILSRPKPWSKLTQKGREPFIRMQLWLNG, the abundance fitness is -0.016 ± 0.086.

Regarding QEVDTIELTRQVKEKLAKNGICQRIFGEKVLGLSQGSVSDSLSRPKPWSKLTQKGREPFIRMQLWLNG, the abundance fitness is -0.263 ± 0.062.

Take QEVDTIELTRQVKEKLAKNGICQRIFGEKVLGLSQGSVSDALSRPKPWSKLTQKGREPFIRMQLWLNG: the abundance fitness is 0.023 ± 0.053.

On to QEVDTIELTRQVKEKLAKNGICQRIFGEKVLGLSQGSVSDCLSRPKPWSKLTQKGREPFIRMQLWLNG, for which the abundance fitness is 0.009 ± 0.12.

In the case of QEVDTIELTRQVKEKLAKNGICQRIFGEKVLGLSQGSVSDYLSRPKPWSKLTQKGREPFIRMQLWLNG, the abundance fitness was -0.011 ± 0.096.

Turning to QEVDTIELTRQVKEKLAKNGICQRIFGEKVLGLSQGSVSDVLSRPKPWSKLTQKGREPFIRMQLWLNG, the abundance fitness was -0.007 ± 0.045.

For QEVDTIELTRQVKEKLAKNGICQRIFGEKVLGLSQGSVSDGLSRPKPWSKLTQKGREPFIRMQLWLNG, the abundance fitness is -0.239 ± 0.059.

Take QEVDTIELTRQVKEKLAKNGICQRIFGEKVLGLSQGSVYDMLSRPKPWSKLTQKGREPFIRMQLWLNG: the abundance fitness was -0.094 ± 0.11.

Turning to QEVDTIELTRQVKEKLAKNGICQRIFGEKVLGLSQGSVSDMLQRPKPWSKLTQKGREPFIRMQLWLNG, the abundance fitness stood at 0.029 ± 0.071.

On to QEVDTIELTRQVKEKLAKNGICQRIFGEKVLGLSQGSVSDMLTRPKPWSKLTQKGREPFIRMQLWLNG, for which the abundance fitness was -0.01 ± 0.096.

With QEVDTIELTRQVKEKLAKNGICQRIFGEKVLGLSQGSVSDMLPRPKPWSKLTQKGREPFIRMQLWLNG, the abundance fitness was -0.304 ± 0.072.

For the variant QEVDTIELTRQVKEKLAKNGICQRIFGEKVLGLSQGSVSDMLIRPKPWSKLTQKGREPFIRMQLWLNG, the abundance fitness was -0.187 ± 0.11.

For the variant QEVDTIELTRQVKEKLAKNGICQRIFGEKVLGLSQGSVSDMLWRPKPWSKLTQKGREPFIRMQLWLNG, the abundance fitness is -0.407 ± 0.072.

On to QEVDTIELTRQVKEKLAKNGICQRIFGEKVLGLSQGSVSDMLRRPKPWSKLTQKGREPFIRMQLWLNG, for which the abundance fitness was -0.125 ± 0.055.

In the case of QEVDTIELTRQVKEKLAKNGICQRIFGEKVLGLSQGSVSDMLHRPKPWSKLTQKGREPFIRMQLWLNG, the abundance fitness came out at 0.049 ± 0.1.

For the variant QEVDTIELTRQVKEKLAKNGICQRIFGEKVLGLSQGSVSDMLARPKPWSKLTQKGREPFIRMQLWLNG, the abundance fitness came to 0.007 ± 0.061.

QEVDTIELTRQVKEKLAKNGICQRIFGEKVLGLSQGSVSDMLVRPKPWSKLTQKGREPFIRMQLWLNG: the abundance fitness is -0.064 ± 0.055.

For the variant QEVDTIELTRQVKEKLAKNGICQRIFGEKVLGLSQGSVSDMLNRPKPWSKLTQKGREPFIRMQLWLNG, the abundance fitness is 0.066 ± 0.1.

As to QEVDTIELTRQVKEKLAKNGICQRIFGEKVLGLSQGSVSDMLGRPKPWSKLTQKGREPFIRMQLWLNG, the abundance fitness was -0.251 ± 0.055.

Consider QEVDTIELTRQVKEKLAKNGICQRIFGEKVLGLSQGSVSDMLERPKPWSKLTQKGREPFIRMQLWLNG, for which the abundance fitness came out at 0.014 ± 0.077.

For QEVDTIELTRQVKEKLAKNGICQRIFGEKVLGLSQGSVSDMLCRPKPWSKLTQKGREPFIRMQLWLNG, the abundance fitness is -0.153 ± 0.064.

For QEVDTIELTRQVKEKLAKNGICQRIFGEKVLGLSQGSVSDMLKRPKPWSKLTQKGREPFIRMQLWLNG, the abundance fitness was -0.028 ± 0.088.

With QEVDTIELTRQVKEKLAKNGICQRIFGEKVLGLSQGSVSDMLFRPKPWSKLTQKGREPFIRMQLWLNG, the abundance fitness is -0.373 ± 0.083.

In the case of QEVDTIELTRQVKEKLAKNGICQRIFGEKVLGLSQGSVSDMLLRPKPWSKLTQKGREPFIRMQLWLNG, the abundance fitness is -0.139 ± 0.048.

On to QEVDTIELTRQVKEKLAKNGICQRIFGEKVLGLSQGSVSDMLMRPKPWSKLTQKGREPFIRMQLWLNG, for which the abundance fitness turned out to be 0.079 ± 0.078.

QEVDTIELTRQVKEKLAKNGICQRIFGEKVLGLSQGSVSDMLYRPKPWSKLTQKGREPFIRMQLWLNG: the abundance fitness is -0.174 ± 0.083.
